# In patent publication US20160096882A1:
# B1: 1286-A11 antibody (antibody, V domains shown)
# VH: QVQLQQSGPRLVKPSQTLSLTCAISGDSVSGDSGTWNWIRQSPSRGLEWLGRTYYRSKWYNDYAESVKSRIVIKADTSKNEFSLQLNSVTPEDTAIYYCARAGVKIFGLIVGALDNWGRGTLVTVSS
# VL: EIVMTQSPGTLSLSPGERATLSCRASQSVSSSYLAWYQQKPGQAPRLLIYGASTRATGVPDRFHGGGSGTDFTLTISRLEPEDFAVYYCQQYDTSSGLTFGGGTKVEIK
# Experiments:
# Assay in all cases: cell-based or functional assay
# [1] = biological target: H1N1 New Caledonia/20/99 hemagglutinin (Influenza A virus H1N1 New Caledonia/20/99)
# [2] = biological target: H3N2 Wisconsin/67/05 hemagglutinin (Influenza A virus H3N2 Wisconsin/67/05)
# [3] = biological target: H5N1 Vietnam/1203/04 hemagglutinin (Influenza A virus H5N1 Vietnam/1203/04)
binder,measurement,setting,value
B1,Neutralization MIC,[1],83 µg/mL
same,Neutralization MIC,[2],> 333 µg/mL
same,Neutralization MIC,[3],333 µg/mL
